Legend:
Type in all cases: biochemical
[1] = HTP-analysis of yeast culture supernatants, no challenge (MUGal hydrolysis); conditions: activity of the variant/activity of Rd4BB (SEQ ID NO: 15)
In short: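 GLA variants expressed in yeast INVSc1, secreted into SD-Ura broth over 66-84 h at 30° C; clarified supernatants tested without challenge. Supernatant mixed with McIlvaine buffer pH 4.8 and 2 mM MUGal (citrate/KCl, pH 4.6), 37° C for 30-180 min, carbonate-quenched, fluorescence Ex 355/Em 448 nm.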

[2] = HTP-analysis of supernatants pretreated with acid (MUGal hydrolysis); conditions: activity of the variant/activity of Rd4BB (SEQ ID NO: 15); challenge at pH 3.7
In short: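 Supernatants from INVSc1 yeast secreting GLA variants were challenged at 37° C. for 1-3 h in McIlvaine buffer at pH 3.3-4.3. Residual activity was then measured on 4 mM MUGal substrate stock at pH 4.8 with citrate buffer pH 4.3, over 30-180 min at 37° C. Reactions were quenched with sodium carbonate and read by fluorescence (Ex 355/Em 448 nm).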

[3] = HTP-analysis of supernatants pretreated with base (MUGal hydrolysis); conditions: activity of the variant/activity of Rd4BB (SEQ ID NO: 15); challenge at pH 9.65
In short: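 Supernatants from INVSc1 yeast expressing GLA variants (SD-Ura, 66-84 h, 30° C) were mixed with McIlvaine buffer pH 7.0-8.2 or 200 mM sodium bicarbonate pH 9.1-9.7 and held 1-18 h at 37° C. Residual activity was then measured on MUGal at pH 4.8/4.3, 37° C, 30-180 min, by fluorescence (Ex 355/Em 448 nm).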

| Molecule | Relative Activity of GLA Variants After No Challenge (NC) [1] | Relative Activity of GLA Variants After Challenge at pH 3.7 [2] | Relative Activity of GLA Variants After Challenge at pH 9.65 [3] |
| --- | --- | --- | --- |
| 501 (protein, Synthetic Polypeptide sequence of Variant No. 501 of mature Human GLA) LDNGLARTPTMGWLHWERFMCNLDCQEEPDSCISEKLFMEMAERMVSEGWKDAGYEYLCIDDCWMAPQRDSEGRLQADPQRFPHGIRQLANYVHSKGLKLGIYADVGNKTCAGFPGSFGYYDIDAQTFADWGVDLLKFDGCYCDSLENLADGYKHMSLALNRTGRSIVYSCEWPLYMWPFQKPNYTEIRQYCNHWRNFADIDDSWKSIKSILDWTSFNQERIVDVAGPGGWNDPDMLVIGNFGLSWNQQVTQMALWAIMAAPLFMSNDLRHISPQAKALLQDKDVIAINQDPLGKQGYQLRQGDNFEVWERPLSGLAWAVAMINRQEIGGPRSYTIAVASLGKGVACNPACFITQLLPVKRKLGFYEWTSRLRSHINPTGTVLLQLENTMQGSLKDLL | + (0.5 to 1.5 relative activity over Rd4BB (SEQ ID NO: 15)) | ++ (>1.5 to 2.5 relative activity over Rd4BB (SEQ ID NO: 15)) | + (0.5 to 1.5 relative activity over Rd4BB (SEQ ID NO: 15)) |
| 507 (protein, Synthetic Polypeptide sequence of Variant No. 507 of mature Human GLA) LDNGLARTPTMGWLHWERFMCNLDCQEEPDSCISEKLFMEMAERMVSEGWKDAGYEYLCIDDCWMAPQRDSEGRLQADPQRFPHGIRQLANYVHSKGLKLGIYADVGNKTCAGFPGSFGYYDIDAQTFADWGVDLLKFDGCYCDSLENLADGYKHMSLALNRTGRSIVYSCEWPLYMWPFQKPNYTEIRQYCNHWRNFADIDDSWKSIKSILDWTSFNQERIVDVAGPGGWNDPDMLVIGNFGLSWNQQVTQMALWAIMAAPLFMSNDLRHISPQAKALLQDKDVIAINQDPLGKQGYQLRQGDNFEVWERPLSGLAWAVAMINRQEIGGPRSYTIAVASLGKGVACNPACFITQLLPVKRKLGFYEWTSRLRSHINPTGTVLLQLENTMQTSLKDLL | + (0.5 to 1.5 relative activity over Rd4BB (SEQ ID NO: 15)) | ++ (>1.5 to 2.5 relative activity over Rd4BB (SEQ ID NO: 15)) | + (0.5 to 1.5 relative activity over Rd4BB (SEQ ID NO: 15)) |
| 504 (protein, Synthetic Polypeptide sequence of Variant No. 504 of mature Human GLA) LDNGLARTPTMGWLHWERFMCNLDCQEEPDSCISEKLFMEMAERMVSEGWKDAGYEYLCIDDCWMAPQRDSEGRLQADPQRFPHGIRQLANYVHSKGLKLGIYADVGNKTCAGFPGSFGYYDIDAQTFADWGVDLLKFDGCYCDSLENLADGYKHMSLALNRTGRSIVYSCEWPLYMWPFQKPNYTEIRQYCNHWRNFADIDDSWKSIKSILDWTSFNQERIVDVAGPGGWNDPDMLVIGNFGLSWNQQVTQMALWAIMAAPLFMSNDLRHISPQAKALLQDKDVIAINQDPLGKQGYQLRQGDNFEVWERPLSGLAWAVAMINRQEIGGPRSYTIAVASLGKGVACNPACFITQLLPVKRKLGFYEWTSRLRSHINPTGTVLLQLENTSQMSLKDLL | + (0.5 to 1.5 relative activity over Rd4BB (SEQ ID NO: 15)) | + (0.5 to 1.5 relative activity over Rd4BB (SEQ ID NO: 15)) | + (0.5 to 1.5 relative activity over Rd4BB (SEQ ID NO: 15)) |
| 502 (protein, Synthetic Polypeptide sequence of Variant No. 502 of mature Human GLA) LDNGLARTPTMGWLHWERFMCNLDCQEEPDSCISEKLFMEMAERMVSEGWKDAGYEYLCIDDCWMAPQRDSEGRLQADPQRFPHGIRQLANYVHSKGLKLGIYADVGNKTCAGFPGSFGYYDIDAQTFADWGVDLLKFDGCYCDSLENLADGYKHMSLALNRTGRSIVYSCEWPLYMWPFQKPNYTEIRQYCNHWRNFADIDDSWKSIKSILDWTSFNQERIVDVAGPGGWNDPDMLVIGNFGLSWNQQVTQMALWAIMAAPLFMSNDLRHISPQAKALLQDKDVIAINQDPLGKQGYQLRQGDNFEVWERPLSGLAWAVAMINRQEIGGPRSYTIAVASLGKGVACNPACFITQLLPVKRKLGFYEWTSRLRSHINPTGTVLLQSENTMQMSLKDLL | − (<0.5 relative activity over Rd4BB (SEQ ID NO: 15)) | + (0.5 to 1.5 relative activity over Rd4BB (SEQ ID NO: 15)) | − (<0.5 relative activity over Rd4BB (SEQ ID NO: 15)) |
| 505 (protein, Synthetic Polypeptide sequence of Variant No. 505 of mature Human GLA) LDNGLARTPTMGWLHWERFMCNLDCQEEPDSCISEKLFMEMAERMVSEGWKDAGYEYLCIDDCWMAPQRDSEGRLQADPQRFPHGIRQLANYVHSKGLKLGIYADVGNKTCAGFPGSFGYYDIDAQTFADWGVDLLKFDGCYCDSLENLADGYKHMSLALNRTGRSIVYSCEWPLYMWPFQKPNYTEIRQYCNHWRNFADIDDSWKSIKSILDWTSFNQERIVDVAGPGGWNDPDMLVIGNFGLSWNQQVTQMALWAIMAAPLFMSNDLRHISPQAKALLQDKDVIAINQDPLGKQGYQLRQGDNFEVWERPLSGLAWAVAMINRQEIGGPRSYTIAVASLGKGVACNPACFITQLLPVKRKLGFYEWTSRLRSHINPTGTVLLQLENTMQNSLKDLL | + (0.5 to 1.5 relative activity over Rd4BB (SEQ ID NO: 15)) | + (0.5 to 1.5 relative activity over Rd4BB (SEQ ID NO: 15)) | + (0.5 to 1.5 relative activity over Rd4BB (SEQ ID NO: 15)) |
| 506 (protein, Synthetic Polypeptide sequence of Variant No. 506 of mature Human GLA) LDNGLARTPTMGWLHWERFMCNLDCQEEPDSCISEKLFMEMAERMVSEGWKDAGYEYLCIDDCWMAPQRDSEGRLQADPQRFPHGIRQLANYVHSKGLKLGIYADVGNKTCAGFPGSFGYYDIDAQTFADWGVDLLKFDGCYCDSLENLADGYKHMSLALNRTGRSIVYSCEWPLYMWPFQKPNYTEIRQYCNHWRNFADIDDSWKSIKSILDWTSFNQERIVDVAGPGGWNDPDMLVIGNFGLSWNQQVTQMALWAIMAAPLFMSNDLRHISPQAKALLQDKDVIAINQDPLGKQGYQLRQGDNFEVWERPLSGLAWAVAMINRQEIGGPRSYTIAVASLGKGVACNPACFITQLLPVKRKLGFYEWTSRLRSHINPTGTVLLWLENTMQMSLKDLL | + (0.5 to 1.5 relative activity over Rd4BB (SEQ ID NO: 15)) | + (0.5 to 1.5 relative activity over Rd4BB (SEQ ID NO: 15)) | − (<0.5 relative activity over Rd4BB (SEQ ID NO: 15)) |
| 503 (protein, Synthetic Polypeptide sequence of Variant No. 503 of mature Human GLA) LDNGLARTPTMGWLHWERFMCNLDCQEEPDSCISEKLFMEMAERMVSEGWKDAGYEYLCIDDCWMAPQRDSEGRLQADPQRFPHGIRQLANYVHSKGLKLGIYADVGNKTCAGFPGSFGYYDIDAQTFADWGVDLLKFDGCYCDSLENLADGYKHMSLALNRTGRSIVYSCEWPLYMWPFQKPNYTEIRQYCNHWRNFADIDDSWKSIKSILDWTSFNQERIVDVAGPGGWNDPDMLVIGNFGLSWNQQVTQMALWAIMAAPLFMSNDLRHISPQAKALLQDKDVIAINQDPLGKQGYQLRQGDNFEVWERPLSGLAWAVAMINRQEIGGPRSYTIAVASLGKGVACNPACFITQLLPVKRKLGFYEWTSRLRSHINPTGTVLLCLENTMQMSLKDLL | + (0.5 to 1.5 relative activity over Rd4BB (SEQ ID NO: 15)) | + (0.5 to 1.5 relative activity over Rd4BB (SEQ ID NO: 15)) | + (0.5 to 1.5 relative activity over Rd4BB (SEQ ID NO: 15)) |
| 372 (protein, Synthetic Polypeptide sequence of Variant No. 372 of mature Human GLA) LDNGLARTPTMGWLHWERFMCNLDCQEEPDSCISEKLFMEMAEVMVSEGWKDAGYEYLCIDDCWMAPQRDSEGRLQADPQRFPHGIRQLANYVHSKGLKLGIYADVGNKTCAGFPGSFGYYDIDAQTFADWGVDLLKFDGCYCDSLENLADGYKHMSLALNRTGRSIVYSCEWPLYMWPFQKPNYTEIRQYCNHWRNFADIDDSWKSIKSILDWTSRNQERIVDVAGPGGWNDPDMLVIGNFGLSWDQQVTQMALWAIMAAPLFMSNDLRHISPQAKALLQDKDVIAINQDPLGKQGYQLRKGDNFEVWERPLSGDAWAVAIINRQEIGGPRSYTIPVASLGKGVACNPACFITQLLPVKRQLGFYNWTSRLKSHINPTGTVLLQLENTMQMSLKDLL | + (0.5 to 1.5 relative activity over Rd4BB (SEQ ID NO: 15)) | − (<0.5 relative activity over Rd4BB (SEQ ID NO: 15)) | + (0.5 to 1.5 relative activity over Rd4BB (SEQ ID NO: 15)) |

Reference: US11278600B2, “Human alpha-galactosidase variants” (Codexis, Inc., priority 2014, dated 2022)
